Source: patent publication US20200283478A1 (Genentech, published 2020)
Read-outs that look alike come from different tables or passages of the source. Bridge positions count the residues as written; N and C are the ends. Square brackets hold non-standard residues; d marks the D form.

B1: SEQ ID NO 321 (peptide)
peptide: TAFTSWEEYLDWVGSGTRYADRGVMVYSLS
B2: SEQ ID NO 319 (peptide)
peptide: TAFTSWEEYLDWVGSGALWNMRRVESVAFR
B3: SEQ ID NO 330 (peptide)
peptide: TAFTSWEEYLDWVGSGEDVVCYGRVDYMPLCV
B4: SEQ ID NO 317 (peptide)
peptide: TAFTSWEEYLDWVGSGNELWNINRLRSS
B5: SEQ ID NO 329 (peptide)
peptide: TAFTSWEEYLDWVGSGNVRCYRDVPSCS
B6: SEQ ID NO 331 (peptide)
peptide: TAFTSWEEYLDWVGSGNPTYWLTRIS
B7: SEQ ID NO 312 (peptide)
peptide: TAFTSWEEYLDWVGSGKLWNLTRISS
B8: SEQ ID NO 324 (peptide)
peptide: TAFTSWEEYLDWVGSGEHQFYSYRGVDVYR
B9: SEQ ID NO 309 (peptide)
peptide: TAFTSWEEYLDWVGSGGPWNLNRV
B10: SEQ ID NO 327 (peptide)
peptide: TAFTSWEEYLDWVGSGACLNHFVSGNMIRC
B11: SEQ ID NO 332 (peptide)
peptide: TAFTSWEEYLDWVGSGPHSYWLDRVQ
B12: SEQ ID NO 316 (peptide)
peptide: TAFTSWEEYLDWVGSGGHPLWNLSRI
B13: Compound 100 (Ac-CRLPWNLQRIGlPC-NH2) (peptide)
peptide: Ac-CRLPWNLQRIG[dL]PC-NH2
modifications: disulfide 1-14
SMILES: CC[C@H](C)[C@@H]1NC(=O)[C@H](CCCNC(=N)N)NC(=O)[C@H](CCC(N)=O)NC(=O)[C@H](CC(C)C)NC(=O)[C@H](CC(N)=O)NC(=O)[C@H](Cc2c[nH]c3ccccc23)NC(=O)[C@@H]2CCCN2C(=O)[C@H](CC(C)C)NC(=O)[C@H](CCCNC(=N)N)NC(=O)[C@@H](NC(C)=O)CSSC[C@@H](C(N)=O)NC(=O)[C@@H]2CCCN2C(=O)[C@@H](CC(C)C)NC(=O)CNC1=O
B14: SEQ ID NO 323 (peptide)
peptide: TAFTSWEEYLDWVGSGGCVKYRGSVSCQESKT
B15: SEQ ID NO 313 (peptide)
peptide: TAFTSWEEYLDWVGSGVVLWNHSRIL
B16: SEQ ID NO 306 (peptide)
peptide: TAFTSWEEYLDWVGSGKLWNLGRV
B17: SEQ ID NO 320 (peptide)
peptide: TAFTSWEEYLDWVGSGGEYLWNLKRLES
B18: phage-displayed Pep2-8V2A (peptide)
peptide: TAFTSWEEYLDWV
B19: SEQ ID NO 325 (peptide)
peptide: TAFTSWEEYLDWVGSGKNNYAYLINMPRAPGI
B20: Compound 101 (Ac-CRLPWNLQRiGLPC-NH2) (peptide)
peptide: Ac-CRLPWNLQR[dI]GLPC-NH2
modifications: disulfide 1-14
SMILES: CC[C@@H](C)[C@H]1NC(=O)[C@H](CCCNC(=N)N)NC(=O)[C@H](CCC(N)=O)NC(=O)[C@H](CC(C)C)NC(=O)[C@H](CC(N)=O)NC(=O)[C@H](Cc2c[nH]c3ccccc23)NC(=O)[C@@H]2CCCN2C(=O)[C@H](CC(C)C)NC(=O)[C@H](CCCNC(=N)N)NC(=O)[C@@H](NC(C)=O)CSSC[C@@H](C(N)=O)NC(=O)[C@@H]2CCCN2C(=O)[C@H](CC(C)C)NC(=O)CNC1=O
B21: SEQ ID NO 314 (peptide)
peptide: TAFTSWEEYLDWVGSGVPWNLARL
B22: SEQ ID NO 315 (peptide)
peptide: TAFTSWEEYLDWVGSGVPWNLAKI
B23: SEQ ID NO 311 (peptide)
peptide: TAFTSWEEYLDWVGSGSCSWNVERIRGCSV
B24: SEQ ID NO 328 (peptide)
peptide: TAFTSWEEYLDWVGSGCPFYDWRCSDFS
B25: SEQ ID NO 318 (peptide)
peptide: TAFTSWEEYLDWVGSGMPWNLARIER
B26: SEQ ID NO 310 (peptide)
peptide: TAFTSWEEYLDWVGSGPLLWNLQKVH
B27: SEQ ID NO 322 (peptide)
peptide: TAFTSWEEYLDWVGSGMVYVDRGVRVFT
B28: Compound 102 (Ac-CRLPWNLQrIGLPC-NH2) (peptide)
peptide: Ac-CRLPWNLQ[dR]IGLPC-NH2
modifications: disulfide 1-14
SMILES: CC[C@H](C)[C@@H]1NC(=O)[C@@H](CCCNC(=N)N)NC(=O)[C@H](CCC(N)=O)NC(=O)[C@H](CC(C)C)NC(=O)[C@H](CC(N)=O)NC(=O)[C@H](Cc2c[nH]c3ccccc23)NC(=O)[C@@H]2CCCN2C(=O)[C@H](CC(C)C)NC(=O)[C@H](CCCNC(=N)N)NC(=O)[C@@H](NC(C)=O)CSSC[C@@H](C(N)=O)NC(=O)[C@@H]2CCCN2C(=O)[C@H](CC(C)C)NC(=O)CNC1=O
B29: SEQ ID NO 307 (peptide)
peptide: TAFTSWEEYLDWVGSGNCWSSLRGICENLG
B30: Compound 103 (Ac-CRLPWNLqRIGLPC-NH2) (peptide)
peptide: Ac-CRLPWNL[dQ]RIGLPC-NH2
modifications: disulfide 1-14
SMILES: CC[C@H](C)[C@@H]1NC(=O)[C@H](CCCNC(=N)N)NC(=O)[C@@H](CCC(N)=O)NC(=O)[C@H](CC(C)C)NC(=O)[C@H](CC(N)=O)NC(=O)[C@H](Cc2c[nH]c3ccccc23)NC(=O)[C@@H]2CCCN2C(=O)[C@H](CC(C)C)NC(=O)[C@H](CCCNC(=N)N)NC(=O)[C@@H](NC(C)=O)CSSC[C@@H](C(N)=O)NC(=O)[C@@H]2CCCN2C(=O)[C@H](CC(C)C)NC(=O)CNC1=O
B31: SEQ ID NO 326 (peptide)
peptide: TAFTSWEEYLDWVGSGRGGYELNIPR

Tests used:
[1] = target: T1, proprotein convertase subtilisin/kexin type 9 (PCSK9) (human, UniProt Q8NBP7 31-692); experiment: phage spot ELISA
T1 construct: His-tagged full-length PCSK9 in TR-FRET and SPR, biotinylated in phage ELISA; secreted protein is autoprocessed (prodomain plus catalytic/CRD chain starting at S153); also called rec.PCSK9; His-PCSK9
T1 sequence (Q8NBP7 other isoform, or with tags, fused parts or gaps limits assumed): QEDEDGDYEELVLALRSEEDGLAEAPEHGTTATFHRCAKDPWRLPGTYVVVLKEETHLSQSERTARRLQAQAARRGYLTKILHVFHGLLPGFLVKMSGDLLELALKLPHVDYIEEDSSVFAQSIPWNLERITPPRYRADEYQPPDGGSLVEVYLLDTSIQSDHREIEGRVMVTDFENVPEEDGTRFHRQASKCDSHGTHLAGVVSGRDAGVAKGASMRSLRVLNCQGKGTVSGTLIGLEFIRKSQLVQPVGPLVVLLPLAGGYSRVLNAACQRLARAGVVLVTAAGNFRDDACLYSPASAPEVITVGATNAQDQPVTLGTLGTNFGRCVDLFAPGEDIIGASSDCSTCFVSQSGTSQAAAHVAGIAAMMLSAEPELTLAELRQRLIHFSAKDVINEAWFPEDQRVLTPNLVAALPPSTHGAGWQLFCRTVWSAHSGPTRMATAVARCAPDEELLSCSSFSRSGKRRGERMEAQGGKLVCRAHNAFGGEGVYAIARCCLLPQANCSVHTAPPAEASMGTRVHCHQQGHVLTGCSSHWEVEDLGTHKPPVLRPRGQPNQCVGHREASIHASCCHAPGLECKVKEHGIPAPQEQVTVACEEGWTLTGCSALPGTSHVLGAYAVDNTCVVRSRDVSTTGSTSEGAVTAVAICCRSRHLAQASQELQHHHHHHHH

PCSK9Δhelix [2] = target: T2, PCSK9Δhelix (human, Chemically biotinylated in the phage ELISAs; the site is not given.); experiment: phage spot ELISA
T2 construct: construct M1-Q692 with engineered TEV site, cleaved by TEV; also called His-PCSK9Δhelix; open groove PCSK9Δhelix
T2 sequence (prodomain, as listed by the source mutant limits assumed, chain 1 of 2): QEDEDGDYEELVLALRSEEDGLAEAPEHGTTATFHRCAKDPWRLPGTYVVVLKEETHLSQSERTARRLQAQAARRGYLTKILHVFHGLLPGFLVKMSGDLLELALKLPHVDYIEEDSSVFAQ
T2 sequence (chain, as listed by the source mutant limits assumed, chain 2 of 2): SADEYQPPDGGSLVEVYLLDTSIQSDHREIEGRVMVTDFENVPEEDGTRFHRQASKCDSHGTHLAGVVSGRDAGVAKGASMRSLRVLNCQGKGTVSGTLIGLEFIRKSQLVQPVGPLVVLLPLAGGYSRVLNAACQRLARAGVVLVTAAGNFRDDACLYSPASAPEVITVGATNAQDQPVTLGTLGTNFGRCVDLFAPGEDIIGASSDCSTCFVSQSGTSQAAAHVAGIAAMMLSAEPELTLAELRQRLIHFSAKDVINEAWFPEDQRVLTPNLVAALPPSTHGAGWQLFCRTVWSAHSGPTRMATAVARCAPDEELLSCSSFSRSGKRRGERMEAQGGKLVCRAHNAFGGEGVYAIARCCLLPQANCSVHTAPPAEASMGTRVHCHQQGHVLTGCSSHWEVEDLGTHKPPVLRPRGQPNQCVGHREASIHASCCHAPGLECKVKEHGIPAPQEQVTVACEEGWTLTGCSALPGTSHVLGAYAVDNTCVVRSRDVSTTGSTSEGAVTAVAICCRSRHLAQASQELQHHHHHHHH

[3] = target: T1, proprotein convertase subtilisin/kexin …; experiment: phage spot ELISA; remark: listed apart in the source
Excerpt: (§1) The binding signal of the same phage particle to NeutrAvidin was considered as non-specific binding (“noise”).

PCSK9Δhelix [4] = target: T2, PCSK9Δhelix; experiment: phage spot ELISA; remark: listed apart in the source
Excerpt: as §1

[5] = target: T3, His-tagged, full-length PCSK9 (human, UniProt Q8NBP7 31-692); experiment: TR-FRET competition (PCSK9/EGF(A) assay); competitor EGF(A)-Fc;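 note: proximity signal from anti-His APC on PCSK9 paired with anti-Fc europium on the Fc ligand, read as normalized TR-FRET ratio across compound dilutions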
T3 construct: secreted PCSK9 is autocatalytically cleaved into prodomain and catalytic domain + CRD (from S153), which stay associated; also called His-PCSK9; proprotein convertase subtilisin/kexin type 9; not shown: His tag
T3 sequence (Q8NBP7 31-692 limits assumed): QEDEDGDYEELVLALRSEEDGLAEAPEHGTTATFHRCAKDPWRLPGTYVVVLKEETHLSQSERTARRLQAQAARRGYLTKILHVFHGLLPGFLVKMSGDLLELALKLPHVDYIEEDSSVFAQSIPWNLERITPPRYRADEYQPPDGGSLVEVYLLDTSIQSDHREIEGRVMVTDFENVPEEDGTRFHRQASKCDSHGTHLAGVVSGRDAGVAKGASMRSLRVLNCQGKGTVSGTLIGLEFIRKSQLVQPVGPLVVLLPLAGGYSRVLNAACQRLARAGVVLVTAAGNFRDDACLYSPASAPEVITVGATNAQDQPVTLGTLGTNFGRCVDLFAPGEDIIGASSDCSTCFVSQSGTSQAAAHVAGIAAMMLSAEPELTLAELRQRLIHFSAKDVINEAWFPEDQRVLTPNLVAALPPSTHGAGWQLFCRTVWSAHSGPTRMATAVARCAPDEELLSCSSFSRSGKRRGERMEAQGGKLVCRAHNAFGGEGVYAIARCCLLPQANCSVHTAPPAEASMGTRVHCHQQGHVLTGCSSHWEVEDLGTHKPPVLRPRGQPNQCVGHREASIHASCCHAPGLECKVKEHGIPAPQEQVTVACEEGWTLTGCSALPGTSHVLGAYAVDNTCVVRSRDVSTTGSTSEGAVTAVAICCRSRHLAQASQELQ

| Binder | ELISA [1] | s/n ratio [1] | ELISA (PCSK9Δhelix [2]) | s/n ratio (PCSK9Δhelix [2]) | ELISA [3] | s/n ratio [3] | ELISA (PCSK9Δhelix [4]) | s/n ratio (PCSK9Δhelix [4]) | IC50 [5] [µM] |
| --- | --- | --- | --- | --- | --- | --- | --- | --- | --- |
| B1 | 3.03 | 30.3 | 3.03 | 27.5 | 2.85 | 23 | 2.81 | 22.8 | – |
| B2 | – | – | – | – | 3.09 | 23.9 | 3.04 | 20.1 | – |
| B3 | – | – | – | – | 2.67 | 25.2 | 2.7 | 24.8 | – |
| B4 | – | – | – | – | 2.94 | 12 | 2.76 | 13.2 | – |
| B5 | – | – | – | – | 2.66 | 25.9 | 2.68 | 26.3 | – |
| B6 | – | – | – | – | 2.98 | 23.1 | 3.02 | 28 | – |
| B7 | – | – | – | – | 2.87 | 28.1 | 2.69 | 25.8 | – |
| B8 | – | – | – | – | 2.55 | 22.3 | 2.66 | 26.2 | – |
| B9 | – | – | – | – | 2.68 | 27.6 | 2.7 | 29.3 | – |
| B10 | – | – | – | – | 2.87 | 26.1 | 1.38 | 8.17 | – |
| B11 | – | – | – | – | 2.89 | 25.3 | 2.68 | 24.6 | – |
| B12 | – | – | – | – | 2.73 | 25.7 | 2.6 | 9.12 | – |
| B13 | – | – | – | – | – | – | – | – | > 50 |
| B14 | – | – | – | – | 2.85 | 18 | 2.73 | 24.2 | – |
| B15 | – | – | – | – | 2.95 | 26.8 | 2.96 | 26.6 | – |
| B16 | – | – | – | – | 2.79 | 28.2 | 2.62 | 8.55 | – |

| Binder | ELISA [1] | s/n ratio [1] | ELISA (PCSK9Δhelix [2]) | s/n ratio (PCSK9Δhelix [2]) | ELISA [3] | s/n ratio [3] | ELISA (PCSK9Δhelix [4]) | s/n ratio (PCSK9Δhelix [4]) | IC50 [5] [µM] |
| --- | --- | --- | --- | --- | --- | --- | --- | --- | --- |
| B17 | – | – | – | – | 2.84 | 28.7 | 2.94 | 26 | – |
| B18 | – | – | – | – | 1.27 | 16.7 | 0.07 | 1.07 | – |
| B19 | – | – | – | – | 2.54 | 24.7 | 2.54 | 29.1 | – |
| B20 | – | – | – | – | – | – | – | – | > 50 |
| B21 | – | – | – | – | 2.82 | 29.3 | 2.68 | 27.3 | – |
| B22 | – | – | – | – | 2.69 | 22.4 | 2.67 | 24.1 | – |
| B23 | – | – | – | – | 2.92 | 18.8 | 2.83 | 26 | – |
| B24 | – | – | – | – | 2.8 | 25 | 2.78 | 26.5 | – |
| B25 | – | – | – | – | 2.86 | 27.8 | 3 | 30.3 | – |
| B26 | – | – | – | – | 2.75 | 23.5 | 2.76 | 24.4 | – |
| B27 | – | – | – | – | 2.82 | 27.9 | 2.71 | 25.1 | – |
| B28 | – | – | – | – | – | – | – | – | > 50 |
| B29 | – | – | – | – | 2.81 | 21.7 | 2.91 | 22.5 | – |
| B30 | – | – | – | – | – | – | – | – | > 50 |
| B31 | 3.13 | 29.8 | 2.92 | 25.6 | 2.93 | 26.1 | 2.69 | 18.8 | – |
